# Test: yeast display, Sf9 membrane polyspecificity reagent, FACS + sequencing; frameworks hold sequencing errors
# Method in brief: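 Synthetic nanobody libraries on Saccharomyces cerevisiae BJ5465 were galactose-induced for 36–48 hours, stained 1 hour at 4 °C with 10% biotinylated, detergent-solubilized Sf9 membrane reagent and enriched on streptavidin microbeads. FACS then separated cells into low and high (top ~1%) gates by anti-HA (expression) and streptavidin (reagent binding) fluorescence. Genes were colony-PCR amplified, MiSeq 2 × 250 sequenced and CDR-length filtered. A clone's polyreactivity label is that of its gate of origin.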
row,Sequence,polyreactivity (PSR sort gate)
1,QVQLVESGGGLVQAGGSLRLSCAASGSTFYGYAMGWSRQAPGKERELDAVINYRGDRTYYADSVKGRFTISRDNAKNTVYLQMNSLKPEDTAVYYCAARYRVYYLPGYEYWGQGTQVTVSS,high polyreactivity
2,QVQLVESGGGLVQAGGSLRLSCAASGSTFYGYAMGWSRQAPGKERELVAAISSSGSRTYYADSVKGRFTISRDNANNPVYLQMNSLKPEDTAVYYCAAVSTLLYYHYYTRDYWGQGTEVTVSS,high polyreactivity
3,QVQLVESGGGLVQAGGSLRLSCAASGSTFYGYAMGWYRQAPGKERELVAAITRSGGSTYYADSVKGRFTISRDNAKNTVYLQMNSLKPEDSEVYYCNKYGYKGGVGYDYWGQGTEVTVSS,high polyreactivity
4,QVQLVESGGGLVQAGGSLRLSCAASGSTFYGYAMGWYRQAPGKERELVAAITRSGGSTYYADSVKGRFTISRDNAKNTVYLQMNSLKPEDTAVYYCAAEFRYSRVYGYNYWGQGSQVTVSS,high polyreactivity
5,QVQLVESGGGLVQAGGSLRLSCAASGSTFYGYAMGWYRQAPGKERELVAVISWRGTSTYYADSVKGRFTISRDNAKNTVYLQMNSLKPEDTAVYYCAARGLWPYDYWGQGTQVTVSS,low polyreactivity
6,QVQLVESGGGLVQAGGSLRLSCAASGSTFYGYGMGWYRQAPGKERELVAAITGSGDTTYYADSVKGRFTISRDNAKNTVYLQMNSLKPEDTAVYYCAADLTVRYDYWGQGTQVTVSS,low polyreactivity
7,QVQLVESGGGLVQAGGSLRLSCAASGSTFYGYGMGWYRQAPGKEWELVAAITGSGDTTYYADSVKGRFTISRDNAKNTVYLQMNSLKPEDTAVYYCNARWHAEYDYWGQGTQVTVSS,low polyreactivity
8,QVQLVESGGGLVQAGGSLRLSCAASGSTFYGYGMGWYSQAPGKERELVAAITKSVGSTYYADSVNGRFTISRDNAKNTVYLQMNSLKPEDTAVYYCARSTRYRRGPSQYAGTYDYWGQGTQVTVSS,low polyreactivity
9,QVQLVESGGGLVQAGGSLRLSCAASGSTFYGYTMGWSRQAPGKERELVAVITSGGSTYYADSVKGRFTISRDNAKNTVYLQMNSLKPDDTAVYYCAQRYGYPAYGRPWRIGRTYDYWGQGTQVTVSS,low polyreactivity
10,QVQLVESGGGLVQAGGSLRLSCAASGSTFYHYAMGWYRQAPGKERELVAAISTGGSTYYADSVKGRFTISRDNAKNTVYLQMNSLKPEDTAVEYCNARYIGGYGYWGQGTQVTVSS,low polyreactivity
11,QVQLVESGGGLVQAGGSLRLSCAASGSTFYHYAMGWYRQAPGKERELVAAISTSGGRTYYADSVKGRFTISRDNAKNTVYLQMNSLKPEDTAVYYCAARSYRYYYGFDYWGQGTQVTVSS,low polyreactivity
12,QVQLVESGGGLVQAGGSLRLSCAASGSTFYIYDMGWYRQAPGKEREFVAAIDFSGSSTYADSVKGRFTISRDNAKNTVYFQINSLKPDDSAVFDCAAYQIYQYDGPYVYWGQGTQVTVSS,low polyreactivity
13,QVQLVESGGGLVQAGGSLRLSCAASGSTFYKNAMGWYRPAPGKERELVAAISGSGGRTYYADSVKGRFTISRDNAKNTVYLQMNSLKPEDTAVYYCNAARAYYSLYYGLDYWGQGTQVTVSS,high polyreactivity
14,QVQLVESGGGLVQAGGSLRLSCAASGSTFYKNAMGWYRQAPGKEREFVAAIRSGDSTNYADSVKGRFTISRDNAKNTVYIQMNSLKPEDSAVYYCARDRPGDYAGYDYWGQGSQVTVSS,low polyreactivity
15,QVQLVESGGGLVQAGGSLRLSCAASGSTFYKNAMGWYRQAPGKERELVAAITRSGGSTYYADSVKGRFTISRDNAKNTVYLQMNSLKPEDTAVYYCAYYPYGYDYWGQGTQVTVSS,high polyreactivity
16,QVQLVESGGGLVQAGGSLRLSCAASGSTFYKYAMGGYRQAPGKERELVASITSGGRTYYADSEKGRFTISRDNAKNTVYLQMNSLKPDDTAVYYCAKRYGRLTRYDYWGQGTQVTVSS,high polyreactivity
17,QVQLVESGGGLVQAGGSLRLSCAASGSTFYKYAMGRYREAPRKERELVASISRSGGSTSYADSVTGRFTISRDNAKNTVYLQMNSLTPEDTAVYYCAATWRQHPGSMGYWGQGTQVTVSS,high polyreactivity
18,QVQLVESGGGLVQAGGSLRLSCAASGSTFYKYAMGWYRQAPGKERELVAVITDGGSTTYADSVKGRFTISRDNAKNTVYLQMNSLKPEDTAVYYCAADYYLRKTRFESWGQGTQVTVSS,low polyreactivity
19,QVQLVESGGGLVQAGGSLRLSCAASGSTFYKYAMGWYRQAPGKERELVAVITKSGGSTYYADSVKGRFTISRDNEKNTVYLQMNSLKPEDTAVYYCAAEDHYGYNSGYDYWGQGTQVTVSS,high polyreactivity
20,QVQLVESGGGLVQAGGSLRLSCAASGSTFYKYGMGRNTQAHGKERELVAAISGSGDSTYYADSVKGRFTISRDNAKNSVYLQMNSLKPEDTAVYYCNAGPWCYLHEYDYWGQGTQVTVSS,low polyreactivity
21,QVQLVESGGGLVQAGGSLRLSCAASGSTFYKYTMGWYRQAPGKERELVAAISGSGTTTYYADSVKGRFTISRDNAKNTVYLQMNSLKPEDTAVYYCAARRFSPGSSGHGYWGQGTQVTVSS,high polyreactivity

row,Sequence,polyreactivity (PSR sort gate)
1,QVQLVESGGGLVQAGGSLRLSCAASGSTFYKYTMGWYRQAPGKERELVAAISGSGTTTYYADSVKGRFTISRDNAKNTVYLQMNSLNPEDTAVYYCAASLYLYNSRITVRSHYYYWGQGTQVTVSS,high polyreactivity
2,QVQLVESGGGLVQAGGSLRLSCAASGSTFYLYAKVWYRQAPGKERELVAAISWSGGDTYYADSVKGRFTISRDKAKNTVYLQMNSLKPEDTAVYYCAAEISYSSPGSPRRRDYWGQGTQVTVSS,low polyreactivity
3,QVQLVESGGGLVQAGGSLRLSCAASGSTFYLYAMGWYRQAPGKEREFVAAISWSGGRTYYADSVKGRFTISRDNAKNTVYLQMNSLKPEDTAVYYCAAKPLFGTRDDYWGQGTQVTVSS,low polyreactivity
4,QVQLVESGGGLVQAGGSLRLSCAASGSTFYLYAMGWYRQAPGKERELVAAISWTGGSTTYADSVKGRFTISRDNAKNTVYLQMNSLKPEDTAVYYCAADEGLIDGRAWYGYWGQGTQVTVSS,low polyreactivity
5,QVQLVESGGGLVQAGGSLRLSCAASGSTFYLYDMGWYRQAPGKERELVATITSGTSTTYADSVKGRFTISRDNAKNTVYLQMISLKPEDTAVYYCNVYKPPTRGGVLEYGYWGQGTQVTVSS,low polyreactivity
6,QVQLVESGGGLVQAGGSLRLSCAASGSTFYLYTMGWYRLAPGKERELVAAISVSGGSTFYADSVKGRFSISRDNAKNTVYLQKNSLKPEDTAVYYSAADGYLHAGHWRTYGYYYWGQGTQVTVSS,low polyreactivity
7,QVQLVESGGGLVQAGGSLRLSCAASGSTFYLYTMGWYRQAPGKERELVAAINRSGGRTYYADSVKGRFTISRDNAKNTVYLQMNSLKPEDTAVYYCATDSVTRGRSRGFDYWGQGTQVTVSS,high polyreactivity
8,QVQLVESGGGLVQAGGSLRLSCAASGSTFYNNAMGWYRQAPGKEREFVAAITLSGGRTYYADSVKGRFTISRDNAMNTVYLQMNSLKPEDTAVYYCAAKGTRRGKERNYWGQGTQVTVSS,high polyreactivity
9,QVQLVESGGGLVQAGGSLRLSCAASGSTFYNYAMGWYRPAPGNERELVAAIDTGGSTNYADSVKGRFTISRDNAKNTVYFQMNSLKPEVTALDYCNTVYLYGTHDYWGQGTQVTVSS,low polyreactivity
10,QVQLVESGGGLVQAGGSLRLSCAASGSTFYNYAMGWYRQAPGKEREFVAAITRSGGSTYYADSVKGRFSISRDNAKNTVYLQMNSLKPEDTAVYYCNAGGHWYYHRYRGYYWGQGTQVTVSS,high polyreactivity
11,QVQLVESGGGLVQAGGSLRLSCAASGSTFYNYAMGWYRQAPGKERELVAAIRNGGGTNYADSVKGRFTISRDNAKITVYLQMNSLKPEDTAVYYCNKAYGVSGPGVDYWGQGTQVTVSS,low polyreactivity
12,QVQLVESGGGLVQAGGSLRLSCAASGSTFYNYAMGWYRQAPGKERELVAAIRNGGGTNYADSVKGRFTISRDNAKNTVYLQMNSLKPEDTAVYYFNKAYGVSGPGVDYWGQGTQVTVSS,low polyreactivity
13,QVQLVESGGGLVQAGGSLRLSCAASGSTFYNYVMGWYRQAPAKERELVAAITSRGGRTYYADSVKGRFTISRDNAKNTVSLQMNSLKPEDTAVYYCARDRGYQSGYDYWGQGTQVTVSS,high polyreactivity
14,QVQLVESGGGLVQAGGSLRLSCAASGSTFYPNAMGWYRQAPGKERELVAAITTSGGSTYYADSVKGRCTISRDNAKNTVYLQMNSLKPEDTAVYYCAAEVRDRGWEPYGPIYDYWGQGTQVTVSS,high polyreactivity
15,QVQLVESGGGLVQAGGSLRLSCAASGSTFYPNARGWYRQAPGKERELVAAISWSGGRTYYADSEKGRFTISRDNAKNTVYLQMNSLKPEDTAVYYCYRYHRTSGRAKYDYWGQGTQVTVSS,high polyreactivity
16,QVQLVESGGGLVQAGGSLRLSCAASGSTFYPYAMGWYRQAPGKERELVAAISSRDGRTYYADSVKGRFTISRDNAKNTVYLQMNSLKPEDTAVYYCAASSFNNGHRYDYWGQGTQVTVSS,high polyreactivity
17,QVQLVESGGGLVQAGGSLRLSCAASGSTFYPYAMGWYRQAPGKERELVAAITYSGGSTYYADSVKGRFTISRDNAKNTVYLQMNSLKPDDTAVYYCATPYFSTPRVRGFDYWGQGTQVTVSS,low polyreactivity
18,QVQLVESGGGLVQAGGSLRLSCAASGSTFYPYAMGWYRQAPGKERELVAGISWSGGSTYYADSVKGRFTISRDNAKNTVYLQMNSLKPEDTAVYSCAVDVYWSVIYDYWGQGTQVTVSS,low polyreactivity
19,QVQLVESGGGLVQAGGSLRLSCAASGSTFYPYAMGWYRQAPGTEREFVAAITWSGGSTYYADSVKGRFTISRDNAKNTVYLQMNSLKPDDTAVYYCNAVVATSKYTDYYWGQGTQVTVSS,low polyreactivity
20,QVQLVESGGGLVQAGGSLRLSCAASGSTFYPYGMGWYRQAPGNERELVAAITDSGGSTYYADSVKGRFTISRDNAKNTVYLQMNSLKPEDTAVYYCAKTYWYPWRASLWHEYDYWGQGTQVTVSS,low polyreactivity
